Results published in paper PMC11044841.
pKd: −log10 of the molar value.

How the values were obtained:
[1] = target: GST-NTF2L (GST-tagged NTF2-like domain of G3BP1) (human); assay: SPR
DDX6 = assay: mass spectrometry of G3BP1-GFP interactome; settings: HEK293T G3BP1/2 DKO cells; read off a plot
PRC2C = assay: mass spectrometry of G3BP1-GFP interactome; settings: HEK293T G3BP1/2 DKO cells; read off a plot
IMB1 = assay: mass spectrometry of G3BP1-GFP interactome; settings: HEK293T G3BP1/2 DKO cells; read off a plot
NU205 = assay: mass spectrometry of G3BP1-GFP interactome; settings: HEK293T G3BP1/2 DKO cells; read off a plot
NUFP2 = assay: mass spectrometry of G3BP1-GFP interactome; settings: HEK293T G3BP1/2 DKO cells; read off a plot
NUP93 = assay: mass spectrometry of G3BP1-GFP interactome; settings: HEK293T G3BP1/2 DKO cells; read off a plot
P121A = assay: mass spectrometry of G3BP1-GFP interactome; settings: HEK293T G3BP1/2 DKO cells; read off a plot
P121C = assay: mass spectrometry of G3BP1-GFP interactome; settings: HEK293T G3BP1/2 DKO cells; read off a plot
PABP1 = assay: mass spectrometry of G3BP1-GFP interactome; settings: HEK293T G3BP1/2 DKO cells; read off a plot
PABP4 = assay: mass spectrometry of G3BP1-GFP interactome; settings: HEK293T G3BP1/2 DKO cells; read off a plot
RBP2 = assay: mass spectrometry of G3BP1-GFP interactome; settings: HEK293T G3BP1/2 DKO cells; read off a plot
RS3 = assay: mass spectrometry of G3BP1-GFP interactome; settings: HEK293T G3BP1/2 DKO cells; read off a plot
TRAP1 = assay: mass spectrometry of G3BP1-GFP interactome; settings: HEK293T G3BP1/2 DKO cells; read off a plot

Sequence of N-WT (1–25) peptide (P0DTC9 1-25): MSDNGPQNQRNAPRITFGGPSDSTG

Q: How did the pKd [1] turn out when “N-WT (1–25) peptide (from UniProt P0DTC9 1-25)” was run?
A: Its pKd is 5.94.

Q: G3BP1-EGFP (from UniProt Q13283) F112A was tested. Which other: Log2(fold change) (DDX6) did it give?
A: Its other: Log2(fold change) is -2.7.

Q: What about the other: Log2(fold change) (PRC2C) of the same substance?
A: Its other: Log2(fold change) is 5.8.

Q: With G3BP1-EGFP (from UniProt Q13283) V11A as the substance, how does the other: Log2(fold change) (DDX6) read?
A: The other: Log2(fold change) was -2.3.

Q: With G3BP1-EGFP (from UniProt Q13283) F33W as the substance, how does the other: Log2(fold change) (IMB1) read?
A: The other: Log2(fold change) was 6.7.

Q: And the other: Log2(fold change) (NU205)?
A: Its other: Log2(fold change) is 8.7.

Q: What about the other: Log2(fold change) (NUFP2) of the same substance?
A: Its other: Log2(fold change) is -9.7.

Q: What about the other: Log2(fold change) (NUP93) of the same substance?
A: The other: Log2(fold change) was 8.4.

Q: And the other: Log2(fold change) (P121A)?
A: Its other: Log2(fold change) is 2.9.

Q: And the other: Log2(fold change) (P121C)?
A: The other: Log2(fold change) was 2.5.

Q: What about the other: Log2(fold change) (PABP1) of the same substance?
A: Its other: Log2(fold change) is -4.1.

Q: And the other: Log2(fold change) (PABP4)?
A: Its other: Log2(fold change) is -8.9.

Q: And the other: Log2(fold change) (RBP2)?
A: Its other: Log2(fold change) is 8.9.

Q: And the other: Log2(fold change) (RS3)?
A: The other: Log2(fold change) was -6.4.

Q: With G3BP1-EGFP (from UniProt Q13283) F124W as the substance, how does the other: Log2(fold change) (IMB1) read?
A: Its other: Log2(fold change) is 6.2.

Q: And the other: Log2(fold change) (TRAP1)?
A: Its other: Log2(fold change) is 6.
